Reference: publication PMC8185548

Target: CD47 (mouse (endogenous in AB1 cells)) (UniProt Q61735)
Assay: proximity ligation; fixed MM (AB1) cells on coverslips, resting (PBS) or treated overnight with 400 nM BoxA or 10 nM CXCL12; primary antibodies to CD47 together with anti-CXCR4, anti-RAGE or anti-TLR4; Duolink probes; confocal imaging, signal per cell quantified

Sequence of UniProt Q61735 (Q61735 19-303): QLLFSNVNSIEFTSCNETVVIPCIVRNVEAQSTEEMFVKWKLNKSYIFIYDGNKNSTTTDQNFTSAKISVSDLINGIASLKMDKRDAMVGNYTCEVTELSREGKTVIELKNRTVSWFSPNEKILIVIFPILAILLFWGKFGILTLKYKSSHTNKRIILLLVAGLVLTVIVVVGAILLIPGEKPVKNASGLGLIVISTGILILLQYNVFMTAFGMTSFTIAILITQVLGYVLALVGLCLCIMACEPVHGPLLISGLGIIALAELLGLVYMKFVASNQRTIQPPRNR

| PLA signal, fold lower than that of CD47 and CXCR4 (fold lower than CD47/CXCR4) | Substance |
| --- | --- |
| 100 | RAGE (from UniProt Q62151 23-402) (receptor) |
| 100 | TLR4 (from UniProt Q9QUK6 26-835) (receptor) |
